Results: publication doi:10.1101/2023.12.20.572533, “MUT-7 exoribonuclease activity and localisation are mediated by an ancient domain” (bioRxiv, 2023)

How the values were obtained:
[1] = biological target: T1, MUT-7^FL/MUT-8^FL complex (C. elegans, UniProt P34607 1-910; Q19672 1-578); test: pull-down; purified proteins (5 µM), GST-tagged MUT-16 constructs as bait on glutathione resin; 20 mM HEPES/NaOH pH 7.5, 150 mM NaCl, 10% glycerol, 0.05% IGEPAL, 2 mM DTT; 4 °C; SDS-PAGE, Coomassie; conditions: both partners purified
T1 construct: C. elegans MUT-7, residues 1-910; C. elegans MUT-8 (RDE-2), residues 1-578; also called MUT-7/MUT-8; full-length MUT-7/MUT-8; source: E. coli BL21(DE3) derivative, co-expressed and purified as a complex through several chromatographic steps
T1 sequence (looked up) 1: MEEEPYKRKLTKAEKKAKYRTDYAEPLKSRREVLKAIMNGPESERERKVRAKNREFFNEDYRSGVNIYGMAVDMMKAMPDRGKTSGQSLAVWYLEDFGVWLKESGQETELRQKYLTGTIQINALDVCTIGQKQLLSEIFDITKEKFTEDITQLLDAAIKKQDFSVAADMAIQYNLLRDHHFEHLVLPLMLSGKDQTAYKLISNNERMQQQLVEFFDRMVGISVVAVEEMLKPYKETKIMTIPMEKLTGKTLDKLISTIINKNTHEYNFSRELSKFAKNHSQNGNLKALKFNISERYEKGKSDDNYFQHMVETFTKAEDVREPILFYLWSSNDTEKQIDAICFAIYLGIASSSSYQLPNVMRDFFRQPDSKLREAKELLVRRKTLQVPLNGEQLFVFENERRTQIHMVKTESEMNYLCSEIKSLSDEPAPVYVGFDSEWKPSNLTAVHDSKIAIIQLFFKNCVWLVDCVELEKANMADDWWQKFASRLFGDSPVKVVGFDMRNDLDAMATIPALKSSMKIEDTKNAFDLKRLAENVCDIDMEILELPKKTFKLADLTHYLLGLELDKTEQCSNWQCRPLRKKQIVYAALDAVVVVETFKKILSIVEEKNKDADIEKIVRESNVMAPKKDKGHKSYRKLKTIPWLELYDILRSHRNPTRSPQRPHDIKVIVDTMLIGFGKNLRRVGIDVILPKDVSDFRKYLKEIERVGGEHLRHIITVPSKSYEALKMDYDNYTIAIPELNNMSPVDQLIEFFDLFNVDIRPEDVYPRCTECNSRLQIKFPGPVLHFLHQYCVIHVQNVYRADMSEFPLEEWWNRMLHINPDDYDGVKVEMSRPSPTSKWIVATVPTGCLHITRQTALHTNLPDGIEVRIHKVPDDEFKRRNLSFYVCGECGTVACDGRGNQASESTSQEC
T1 sequence (looked up) 2: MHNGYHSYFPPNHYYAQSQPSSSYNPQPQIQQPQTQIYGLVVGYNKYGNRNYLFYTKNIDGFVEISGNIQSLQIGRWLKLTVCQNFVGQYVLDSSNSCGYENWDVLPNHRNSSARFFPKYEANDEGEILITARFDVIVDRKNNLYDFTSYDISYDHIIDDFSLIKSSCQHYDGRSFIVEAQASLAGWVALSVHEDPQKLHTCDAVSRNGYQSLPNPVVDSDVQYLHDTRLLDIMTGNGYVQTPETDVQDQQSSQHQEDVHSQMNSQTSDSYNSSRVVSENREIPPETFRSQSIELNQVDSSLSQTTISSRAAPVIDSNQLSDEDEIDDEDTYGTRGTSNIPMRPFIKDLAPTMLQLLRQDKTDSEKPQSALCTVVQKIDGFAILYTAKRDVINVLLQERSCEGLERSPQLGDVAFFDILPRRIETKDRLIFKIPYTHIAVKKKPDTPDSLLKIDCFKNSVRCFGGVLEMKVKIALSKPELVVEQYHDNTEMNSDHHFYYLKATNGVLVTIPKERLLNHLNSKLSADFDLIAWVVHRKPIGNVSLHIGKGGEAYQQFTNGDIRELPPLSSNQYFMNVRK

[2] = biological target: T2, MUT-8^NTD (1-235), purified (C. elegans, UniProt Q19672 1-235); test: ITC; cell 46 µM MUT-8^NTD, syringe 600 µM MUT-16^584-724; 20 °C; 25 mM Tris/HCl pH 7.5, 150 mM NaCl, 0.25 mM TCEP; 19 injections of 2 µL; mean of three experiments; conditions: both partners purified
T2 construct: C. elegans MUT-8 N-terminal domain construct, residues 1-235
T2 sequence (looked up): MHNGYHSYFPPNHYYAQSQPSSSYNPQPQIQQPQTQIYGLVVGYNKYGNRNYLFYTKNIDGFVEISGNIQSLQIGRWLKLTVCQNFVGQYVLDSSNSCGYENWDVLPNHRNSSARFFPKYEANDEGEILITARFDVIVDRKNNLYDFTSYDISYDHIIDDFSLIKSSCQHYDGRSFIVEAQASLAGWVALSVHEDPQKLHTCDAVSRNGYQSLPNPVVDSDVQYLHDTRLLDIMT

[3] = biological target: T3, MUT-7FL/MUT-8CTD chain MUT-7FL;MUT-8CTD (Caenorhabditis elegans;Caenorhabditis …, UniProt P34607;Q19672 1-910;322-578, |); test: fluorescence polarisation; 50 mM KCl, 5 mM EDTA; FP: 50 nM RNA, 20 mM HEPES/NaOH pH 7.5, 50 mM KCl, 5 mM EDTA (C. elegans) or 250 mM NaCl (human EXD3 and MUT-7 D435A), room temperature, 30 min; conditions: protein: recombinant;recombinant; copies: 1;1; label: 5'-FAM; single strand
T3 sequence 1: T1 sequence (looked up) 1
T3 sequence 2: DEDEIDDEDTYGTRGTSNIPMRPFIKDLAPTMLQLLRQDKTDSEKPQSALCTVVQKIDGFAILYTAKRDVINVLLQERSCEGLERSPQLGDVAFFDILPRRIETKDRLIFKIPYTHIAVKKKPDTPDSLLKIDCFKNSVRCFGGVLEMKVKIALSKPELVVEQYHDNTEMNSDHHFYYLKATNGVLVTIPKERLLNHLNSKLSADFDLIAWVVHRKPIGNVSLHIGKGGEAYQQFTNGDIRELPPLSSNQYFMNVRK

B1: GST-tagged MUT-16^1-724 (domain or fragment, C. elegans, UniProt O62011 1-724, looked up)
chain: MSESDDDYPELDISDQYIDPLGIVVGPPPASYTETDREETPMQNRTEDDTNSYGNSSGEHDYDSYLDSGDDDFDVDAYYANDNMDEPPPETIPDNLIQNVIGRNDNADYDFSDASNPEIMKRDLQLFLSSSLLSNPLKFRSGYSSDELDDCLKSCMGYSLQVTAVLLLPPEIISQLPNDSKTEHAHALVRGGWLQSKEGAFFPVISDSERETVVSLMNGSEEQHKRQERKKKEADTFESEEKEIRTLLTFNMIAELLMAVRNEYSIRSVKYQILSTAYTNMVTGAAHANIFRKYKDILQLDPEKLWNNDWFKEYTNRGTLKKFLTTARFSEIVVSQANGKTVELYFRADDEGNRPVVLFTDEHIADVRNKWKTGNQRNQNYGSQGNYRAGGQRSDDRRGPQQRRNVIVPDPNYQPSTFAGGISNNADDDGSLQPTTSSHFNRNTDRSTSRPPRAPTSPVNRVMETDPLMGQGTSSGAPQRSAIPNPFGGAPALSRSTITNGNRGPSYGDRGERVQDVGDTTSDSEITSEGSYSDEDPEQKEIKRQRRKDKLKKKQERELRSREKHTKSKQQPPSKIETRFNTYKKKSESSATDTSNTPPVDTVNVALPTPVVESSSTTAAPSIPVSTRPEVVVPPENPAPLREVGNFYSKSNHDEDRRNVQLPFTPADTHKPIKVAPKEPVRNPLLKERPSANGFINRRLPSHPAPPPVNQSQPANQPMQTAVY
notes: source: E. coli BL21(DE3) derivative, purified as GST-tagged fusion protein
B1: binds [1].

B2: MUT-16^584-724, purified (SEC, ITC) (domain or fragment, C. elegans, UniProt O62011 584-724, looked up)
chain: KKKSESSATDTSNTPPVDTVNVALPTPVVESSSTTAAPSIPVSTRPEVVVPPENPAPLREVGNFYSKSNHDEDRRNVQLPFTPADTHKPIKVAPKEPVRNPLLKERPSANGFINRRLPSHPAPPPVNQSQPANQPMQTAVY
notes: source: E. coli BL21(DE3) derivative, purified (alone, or co-expressed with MUT-8^NTD and purified as a complex)
Work on B2 yielded a Kd [2] of ~13 µM.

B3: 16-mer ssRNA (ssRNA)
RNA: GUUGAUUGAAGAGUUC
B3 was tested, and the Kd [3] was 0.17 µM.
